The target in experiment [1] is PDZ123 of PSD-95 (residues 61-403), soluble recombinant fragment with all three PDZ domains (murine) (UniProt Q62108). In words: SPR.
The target in experiment [2] is PDZ123 (PSD-95 residues 61-402)-HaloTag fusion on HaloLink resin (murine) (UniProt Q62108). In words: pull-down.
Experiment [3] has as its target calmodulin on CaM-Sepharose 4B (UniProt P0DP23). In words: pull-down.
Experiment [4] has as its target PDZ1 of PSD-95 (residues 61-151), soluble recombinant domain (murine) (UniProt Q62108). The experiment in a line: SPR. In general terms: SPR reads the build-up and loss of mass on a sensor chip optically.
Experiment [5] deals with calmodulin (CaM), used with Ca2+ (UniProt P0DP23). In words: SPR.
The target of experiment [6] is PDZ3 of PSD-95 (residues 302-402), soluble recombinant domain (murine) (UniProt Q62108). In words: SPR.

Turning to r-synGAP S1283D (domain or fragment), in experiment [1], the fold increase of KDapp over wild-type r-synGAP amounted to 4 fold. Further, the percent reduction of binding relative to wild-type in experiment [2] came to 50%.

As a reminder, the Kd is a measure of binding affinity in units of concentration. “sr-synGAP (C-terminal truncated synGAP, residues 103-725 of synGAP A1-α1) (domain or fragment)”: the Kd in experiment [3] came out at 210 nM.

For “r-synGAP (soluble recombinant synGAP, residues 103-1293 of synGAP A1-α1) (domain or fragment)”, the Kd came out at 140 nM in experiment [4], 9 nM in experiment [5], 730 nM in experiment [6] and 31 nM in experiment [3].

For “r-synGAP phosphorylated by CaMKII (domain or fragment)”, the fold increase of KDapp over unphosphorylated r-synGAP in experiment [1] came out at 10 fold.
